{"source": "paper PMC5736104", "about": "(Nature, 2017)", "proteins": {"B1": {"name": "Hrd1, truncated after the RING finger domain (amino acids 1-407) (domain or fragment, S. cerevisiae, UniProt Q08109 1-407, looked up)", "chain": "MVPENRRKQLAIFVVVTYLLTFYCVYSATKTSVSFLQVTLKLNEGFNLMVLSIFILLNSTLLWQLLTKLLFGELRLIEHEHIFERLPFTIINTLFMSSLFHERYFFTVAFFGLLLLYLKVFHWILKDRLEALLQSINDSTTMKTLIFSRFSFNLVLLAVVDYQIITRCISSIYTNQKSDIESTSLYLIQVMEFTMLLIDLLNLFLQTCLNFWEFYRSQQSLSNENNHIVHGDPTDENTVESDQSQPVLNDDDDDDDDDRQFTGLEGKFMYEKAIDVFTRFLKTALHLSMLIPFRMPMMLLKDVVWDILALYQSGTSLWKIWRNNKQLDDTLVTVTVEQLQNSANDDNICIICMDELIHSPNQQTWKNKNKKPKRLPCGHILHLSCLKNWMERSQTCPICRLPVFDEK"}}, "target": "the molecule itself", "experiment": "cryo-EM structure", "data": [{"protein": "B1", "values": [{"measurement": "stoichiometry N", "value": 2}]}]}
